In patent US20070179086A1 (Amgen, published 2007):
Residue numbers refer to the chain shown, from its start.

B1: anti-TR-2 antibody A (antibody, V domains shown)
VH: QVQLVQSGAEVKKPGASVKVSCKASGYTFTSYDINWVRQATGQGLEWMGWMNPNSDNTGYAQKFQGRVTMTRNTSISTAYMELSSLRSEDTAVYYCARWNHYGSGSHFDYWGQGTLVTVSS
VL: DIQMTQSPSSLSASVGDRVTITCRASQSISIYLNWYQQKPGKAPKLLIYAASSLQSGVPLRFSGSGSGTDFTLTISSLQPEDIATYYCQQSYKTPLTFGGGTKVEIK
notes: also called Ab A
B2: anti-TR-2 antibody D (antibody, V domains shown)
VH: QVQLQESGPGLVKPSQTLSLTCTVSGGSISSGGHYWSWIRQHPGKGLEWIGYIYYSGSAYYNPSLKSRVTISVDTSKNQFSLKLSSVTAADTAVYYCARDDSSGWGFDYWGQGILVTVSS
VL: DIQMTQSPSSLSASVGDRVTITCRASQGLRNDLGWFQQKPGKAPKRLIYAASSLQRGVPSRFSGSGSGTEFTLTISSLQPEDFTTYFCLQHNSFPWTFGQGTKVEIK
notes: Human antibody from XenoMouse; also called Ab D
B3: anti-TR-2 antibody E (antibody, V domains shown)
VH: QVQLVESGGGLVKPGGSLRLSCAASGFTFSDYYMNWIRQAPGKGLEWVSHISSSGSILDYADSVKGRFTISRDNAKNSLYLQMNSLRVEDTAVYYCARDGAAAGTDAFDLWGQGTMVTVSS
VL: DIQMTQSPSSLSASVGDRVTITCRSSQSISNYINWYQQRPGKAPNLLIHDVSSFQSAVPSRFSRSGSGTVFTLTISSLQPEDFATYFCQQTYITPFTFGPGTKVDIK
notes: also called Ab E
B4: anti-TR-2 antibody F (antibody, V domains shown)
VH: QVQLVESGGGVVQPGRSLRLSCAASGFTFSYYGIHWVRQAPGKGLEWVAVIWYDGSNKYYADSVKGRFTISRDNSKNTLYLQMNSLRAEDTAVYYCARGRYSSSSWWYFDLWGRGTLVTVSS
VL: DIQMTQSPSSLSASVGDRVTITCRASQGISNYLAWYQQKPGKVPKLLIYAASTLQSGVPSRFSGSGSGTDFTLTISSLQPEDVATYYCQKYNSAPLTFGGGTKVEIK
notes: also called Ab F
B5: anti-TR-2 antibody G (antibody, V domains shown)
VH: QVQAEQSGPGLVKPSETLSLTCTVSGGSISNYYWSWIRQPPGKGLEWIGYIYYSGSTKYNPSLKSRVTISVDTSKNQFSLKLTSVTTADTAVYYCARDSPRGFSGYEAFDSWGQGTLVTVSS
VL: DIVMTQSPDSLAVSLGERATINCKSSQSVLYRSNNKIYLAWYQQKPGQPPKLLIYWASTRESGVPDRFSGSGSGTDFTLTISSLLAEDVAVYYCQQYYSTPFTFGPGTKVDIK
notes: also called Ab G
B6: anti-TR-2 antibody H (antibody, V domains shown)
VH: QVQLQESGPGLVKPSQTLSLTCTVSGGSISSDNYYWSWIRQHPGKGLEWIGYIYYSGSTYYNPSLKSRVTISVDTSKNQFSLKLSSVTAADTAVYYCARGVNWNFLFDIWGQGTMVTVSS
VL: not shown
notes: also called Ab H
B7: anti-TR-2 antibody I (antibody, V domains shown)
VH: QVQLVESGGGLVKPGGSLRLSCAASGFTFSDYYMSWIRQAPGKGLEWVSYISRSGSTIYYADSVKGRFTISRDNAKNSLYLQMNSLRAEDTAVYYCARSLGGMDVWGQGTTVTVSS
VL: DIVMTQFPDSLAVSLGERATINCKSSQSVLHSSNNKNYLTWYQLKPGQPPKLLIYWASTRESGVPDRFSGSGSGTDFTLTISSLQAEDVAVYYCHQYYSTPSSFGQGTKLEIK
notes: also called Ab I
B8: anti-TR-2 antibody J (antibody, V domains shown)
VH: QVQLVESGGGVVQPGRSLRLSCAASGFTFNNYGMHWVRQAPGKGLEWVAVIWYDGSNKYYADSVKGRFTISRDNSKNTLYLQMNSLRAEDTAVYYCARDRTVYSNSSPFYYYYYGMDVWGQGTTVTVSS
VL: B1 VL with A25T, I31T, Y49S, A51T, L60S, I83F, K93S
notes: also called Ab J
B9: anti-TR-2 antibody K (antibody, V domains shown)
VH: B8 VH with N30S, N31T, N105S
VL: B1 VL with I31S, Y49S, A51T, L54F, L60S, I83F, T85A, K93S
notes: also called Ab K
B10: anti-TR-2 antibody L (antibody, V domains shown)
VH: QVQLQQWGARLLKPSETLSLTCAVYGGSFSGYYWSWIRQPPGKGLEWIGEINHSGSTNYNPSLKSRVTISVDTSKNQFSLKLRSVTAADTAVYYCARGGSSGYWYFDLWGRGTLVTVSS
VL: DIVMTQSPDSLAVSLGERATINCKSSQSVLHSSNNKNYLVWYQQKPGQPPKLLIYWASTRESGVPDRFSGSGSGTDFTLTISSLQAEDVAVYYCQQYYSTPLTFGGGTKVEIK
notes: also called Ab L
B11: anti-TR-2 antibody M (antibody, V domains shown)
VH: EVQVVESGGGLVKPGGSLRLSCAASGFTFSSYSMNWVRQAPGKGLEWVSSISSSSSYIYYADSVKGRFTISRDNAKNSLYLQMNSLRAEDTAVYYCARGGSSWYGDWFDPWGQGTLVTVSS
VL: DIQMTQSPSSVSASVGDRVTITCRASQGISSWLVWYQQKPGKAPKLLIYAASSLQSGVPSRFSGSGSGTDFTLTISSLQPEDFATYYCQQANSFPFTFGGGTKVEIK
notes: also called Ab M
B12: anti-TR-2 antibody C (antibody, V domains shown)
VH: B2 VH
VL: B2 VL
notes: Human antibody from XenoMouse; also called Ab C
B13: anti-TR-2 antibody B (antibody, V domains shown)
VH: B2 VH with A59T
VL: B2 VL with A43V, P44T, T84A, F87Y, N92Y
notes: Human antibody from XenoMouse; also called Ab B
B14: anti-TR-2 antibody O (antibody, V domains shown)
VH: QVQLQESGPGLVKPSQTLSLTCTVSGGSISSGDYFWSWIRQLPGKGLECIGHIHNSGTTYYNPSLKSRVTISVDTSKKQFSLRLSSVTAADTAVYYCARDRGGDYYYGMDVWGQGTTVTVSS
VL: EIVLTQSPGTLSLSPGERATLSCRASQGISRSYLAWYQQKPGQAPSLLIYGASSRATGIPDRFSGSGSGTDFTLTISRLEPEDFAVYYCQQFGSSPWTFGQGTKVEIK
notes: also called Ab O
B15: anti-TR-2 antibody N (antibody, V domains shown)
VH: QLVESGGGVVQPGRSLRLSCAASGFTFSSYGMHWVRQAPGKGLEWVAVIWYDGRNKYYADSVKGRFTISRDNSKNTLYLQMNSLRAEDTAVYYCAREVGYCTNGVCSYYYYGMDVWGQGTTVTVSS
VL: B4 VL with Y36F, V43A, L46S, T53S, R61K, V83F, K90Q, A94Y
notes: also called Ab N
B16: anti-TR-2 antibody P (antibody, V domains shown)
VH: QVQLQESGPGLVKPSQTLSLTCSVSGGSISSGGYYWSWIRQHPGKGLEWIGYIYYSGSTYCNPSLKSRVTISVDTSKNQFSLKLSSVTAADTAVYYCARDNGSGSYDWFDPWGQGILVTVSS
VL: B11 VL with V34A, L46F, Y49F, A50V, L54F, F96R, G100Q
notes: Human antibody from XenoMouse; also called Ab P
B17: anti-TR-2 antibody Q (antibody, V domains shown)
VH: B16 VH with L4M, S23T, G33D, G46N, C61Y, I116T
VL: B11 VL with V34A, L46F, Y49F, A50V, F96R, G100Q
notes: Human antibody from XenoMouse; also called Ab Q

Target: T1, recombinant human TR-2 with a C-terminal hexahistidine tag (TR-2-His) (human, UniProt O14763 56-207)
T1 construct: also called soluble TR-2-His
Assay: SPR Biacore 2000; antibody captured on anti-human antibody chip, 226 nM TR-2-His injected, 25 C, 1:1 model;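 also: goat anti-human capture surface amine-coupled on CM5 chip, HBS-P running buffer with BSA, responses normalized to captured antibody level, kinetics from global 1:1 fitting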
Protocol: (§1) The kinetics of the binding of anti-TR-2 antibodies A to Q to TR-2 was analyzed using a Biacore® 2000 instrument. High-density goat anti-human antibody surfaces were prepared on CM-5 Biacore® chips using routine amine coupling. Each purified anti-TR-2 antibody was diluted to approximately 1 μg/ml in HBS-P running buffer containing 100 μg/ml BSA. Each anti-TR-2 antibody was captured on a separate surface using a two minute contact time and a five minute wash to stabilize the anti-TR-2 antibody surface on the chip.
(§2) Additionally, the data for TR-2 binding to anti-TR-2 antibody were normalized for the amount of monoclonal antibody captured on each surface. Each data set was fit globally to a 1:1 interaction model to determine binding kinetics.

| Binder | Kd | koff | kon |
| --- | --- | --- | --- |
| B1 | 6.9 nM | 0.0037 s⁻¹ | 530000 M⁻¹ s⁻¹ |
| B2 | 4.5 nM | 0.0027 s⁻¹ | 620000 M⁻¹ s⁻¹ |
| B3 | 2.1 nM | 0.0018 s⁻¹ | 870000 M⁻¹ s⁻¹ |
| B4 | 13 nM | 0.005 s⁻¹ | 380000 M⁻¹ s⁻¹ |
| B5 | 31 nM | 0.019 s⁻¹ | 600000 M⁻¹ s⁻¹ |
| B6 | 9.8 nM | 0.0084 s⁻¹ | 860000 M⁻¹ s⁻¹ |
| B7 | 4.4 nM | 0.0013 s⁻¹ | 290000 M⁻¹ s⁻¹ |
| B8 | 12 nM | 0.0071 s⁻¹ | 570000 M⁻¹ s⁻¹ |
| B9 | 18 nM | 0.012 s⁻¹ | 680000 M⁻¹ s⁻¹ |
| B10 | 18 nM | 0.011 s⁻¹ | 600000 M⁻¹ s⁻¹ |
| B11 | 37 nM | 0.012 s⁻¹ | 340000 M⁻¹ s⁻¹ |
| B12 | 3.9 nM | 0.0026 s⁻¹ | 680000 M⁻¹ s⁻¹ |
| B13 | 19 nM | 0.011 s⁻¹ | 570000 M⁻¹ s⁻¹ |
| B14 | 19 nM | 0.0084 s⁻¹ | 440000 M⁻¹ s⁻¹ |

Target: T1, recombinant human TR-2 with a …
Assay: SPR Biacore 2000; antibody captured on anti-human antibody chip, 226 nM TR-2-His injected, 25 C, 1:1 model; data heterogeneous, fit poorly
Protocol: as §1, §2

| Binder | Kd | koff | kon |
| --- | --- | --- | --- |
| B15 | 68 nM | 0.055 s⁻¹ | 810000 M⁻¹ s⁻¹ |
| B16 | 33 nM | 0.027 s⁻¹ | 810000 M⁻¹ s⁻¹ |
| B17 | 13 nM | 0.016 s⁻¹ | 1.2e+06 M⁻¹ s⁻¹ |
